Here are results for two molecules from patent US20260139033A1 (PRANA THERAPIES, published 2026).

As a reminder, the Kd is the concentration at which binding is half-saturated.

A value given as a limit tells only on which side of the number the result lay.

Assay [1] addresses T1, recombinant human TSLP (human, UniProt Q969D9 29-159). In words: cell-based or functional assay.
Assay [2] addresses IL-4R on human donor PBMC (B-cells) (human, UniProt P24394 26-825). Put plainly: cell-based or functional assay.
In assay [3] the target is T1, recombinant human TSLP. Put plainly: SPR; column 'SPR (Biophysical binding): TSLP (pM)'. On the procedure: (§1) SPR studies were carried out on a Biacore 3000 instrument with a CM5 chip at 25° C. The running buffer comprised 25 mM Hepes, pH 7.5, 150 mM NaCl, 0.5 mg/ml BSA, 0.005% P20. Antibodies were captured via protein A using approximately a 1/50 dilution of each antibody in the running buffer and a 2-minute contact time at a 10 μl/min flow rate. Protein A was immobilized on a CM5 chip via standard amine coupling chemistry in 10 mM acetate pH 4.5. Approximately 800 RU of each antibody was captured. The surfaces were regenerated via a 10 mM glycine pH 1.5 between cycles. Between assays the chip was regenerated with a 2-minute pulse of 100 mM Phosphoric acid. Prior to setting up multicycle kinetic analysis analyte concentration was determined spectrophotometrically using an extinction coefficient of 72,880 M⁻¹ cm⁻¹ for IL4R and 18450 M⁻¹ cm⁻¹ for the TSLP proteins respectively. Analyte samples were prepared by diluting stocks into running buffer to a final concentration of 500 nM for the IL-4R and 25 nM for TSLP followed by serially diluting with a 2-fold series with an association time of 2.5 minutes at a 50 μl/min flow rate. Dissociation data was collected for a period of 1600 seconds. Raw data was analyzed using the Scrubber2 (Biologic Software, AU) program using a double referencing procedure where compound signal is corrected to a blank surface and a buffer injection over the captured antibody surface. Kinetic data was analyzed by fitting to a simple 1:1 binding model. […] The candidates are further described in Table 3.

In assay [4] the target is T1, recombinant human TSLP. In words: SPR (Biacore 3000, CM5 chip, 25 C): complex captured via protein A, TSLP as analyte, 1:1 fit; column 'TSLP binding(pM)'. On the procedure:
as §1

B1: Candidate-21: TSLP TRAP 1_Linker-GS4_Dupilumab-YTE (bispecific antibody, human IgG4 S228P, kappa)
heavy: GAAEGVQIQIIYFNLETVQVTWNASKYSRTNLTFHYRFNGDEAYDQCTNYLLQEGHTSGCLLDAEQRDDILYFSIRNGTHPVFTASRWMVYYLKPSSPKHVRFSWHQDAVTVTCSDLSYGDLLYEVQYRSPFDTEWQSKQENTCNVTIEGLDAEKCYSFWVRVKAMEDVYGPDTYPSDWSEVTCWQRGEIRDACAETPTPPKPKLSKGGSGGSGGSGGSGGSGGSGGSGGSGGSGGSGGSGGSGGSGGSGGSGGSGGSGGSGGSGGSESGYAQNGDLEDAELDDYSFSCYSQLEVNGSQHSLTCAFEDPDVNITNLEFEICGALVEVKCLNFRKLQEIYFIETKKFLLIGKSNICVKVGEKSLTCKKIDLTTIVKPEAPFDLSVVYREGANDFVVTFNTSHLQKKYVKVLMHDVAYRQEKDENKWTHVNLSSTKLTLLQRKLQPAAMYEIKVRSIPDHYFKGFWSEWSPSYYFRTPEINNSSGEMDGGGGSGGGGSGGGGSGGGGSEVQLVESGGGLEQPGGSLRLSCAGSGFTFRDYAMTWVRQAPGKGLEWVSSISGSGGNTYYADSVKGRFTISRDNSKNTLYLQMNSLRAEDTAVYYCAKDRLSITIRPRYYGLDVWGQGTTVTVSSASTKGPSVFPLAPCSRSTSESTAALGCLVKDYFPEPVTVSWNSGALTSGVHTFPAVLQSSGLYSLSSVVTVPSSSLGTKTYTCNVDHKPSNTKVDKRVESKYGPPCPPCPAPEFLGGPSVFLFPPKPKDTLYITREPEVTCVVVDVSQEDPEVQFNWYVDGVEVHNAKTKPREEQFNSTYRVVSVLTVLHQDWLNGKEYKCKVSNKGLPSSIEKTISKAKGQPREPQVYTLPPSQEEMTKNQVSLTCLVKGFYPSDIAVEWESNGQPENNYKTTPPVLDSDGSFFLYSRLTVDKSRWQEGNVFSCSVMHEALHNHYTQKSLSLSLG
light: DIVMTQSPLSLPVTPGEPASISCRSSQSLLYSIGYNYLDWYLQKSGQSPQLLIYLGSNRASGVPDRFSGSGSGTDFTLKISRVEAEDVGFYYCMQALQTPYTFGQGTKLEIKRTVAAPSVFIFPPSDEQLKSGTASVVCLLNNFYPREAKVQWKVDNALQSGNSQESVTEQDSKDSTYSLSSTLTLSKADYEKHKVYACEVTHQGLSSPVTKSFNRGEC
notes: TRAP sits at the N-terminus of the heavy chain
B1: in the assay with recombinant human TSLP [1], the “IC50, PBMC assay in response to TSLP (TARC secretion)” value turned out to be 2.3 nM. Further, the “IC50, IL-4 biological assay (CD23 upregulation in PBMCs)” value in assay [2] was above 200 nM. For the same molecule, the Kd with recombinant human TSLP [3] and in the assay with recombinant human TSLP [4] was 0.0208 nM each time.

B2: Candidate-22: TSLP TRAP 2_Linker-GS4_Dupilumab-YTE (bispecific antibody, human IgG4 S228P, kappa)
heavy: ESGYAQNGDLEDAELDDYSFSCYSQLEVNGSQHSLTCAFEDPDVNITNLEFEICGALVEVKCLNFRKLQEIYFIETKKFLLIGKSNICVKVGEKSLTCKKIDLTTIVKPEAPFDLSVVYREGANDFVVTFNTSHLQKKYVKVLMHDVAYRQEKDENKWTHVNLSSTKLTLLQRKLQPAAMYEIKVRSIPDHYFKGFWSEWSPSYYFRTPEINNSSGEMDGGSGGSGGSGGSGGSGGSGGSGGSGGSGGSGGSGGSGGSGGSGGSGGSGGSGGSGGSGGSGAAEGVQIQIIYFNLETVQVTWNASKYSRTNLTFHYRFNGDEAYDQCTNYLLQEGHTSGCLLDAEQRDDILYFSIRNGTHPVFTASRWMVYYLKPSSPKHVRFSWHQDAVTVTCSDLSYGDLLYEVQYRSPFDTEWQSKQENTCNVTIEGLDAEKCYSFWVRVKAMEDVYGPDTYPSDWSEVTCWQRGEIRDACAETPTPPKPKLSKGGGGSGGGGSGGGGSGGGGSEVQLVESGGGLEQPGGSLRLSCAGSGFTFRDYAMTWVRQAPGKGLEWVSSISGSGGNTYYADSVKGRFTISRDNSKNTLYLQMNSLRAEDTAVYYCAKDRLSITIRPRYYGLDVWGQGTTVTVSSASTKGPSVFPLAPCSRSTSESTAALGCLVKDYFPEPVTVSWNSGALTSGVHTFPAVLQSSGLYSLSSVVTVPSSSLGTKTYTCNVDHKPSNTKVDKRVESKYGPPCPPCPAPEFLGGPSVFLFPPKPKDTLYITREPEVTCVVVDVSQEDPEVQFNWYVDGVEVHNAKTKPREEQFNSTYRVVSVLTVLHQDWLNGKEYKCKVSNKGLPSSIEKTISKAKGQPREPQVYTLPPSQEEMTKNQVSLTCLVKGFYPSDIAVEWESNGQPENNYKTTPPVLDSDGSFFLYSRLTVDKSRWQEGNVFSCSVMHEALHNHYTQKSLSLSLG
light: B1 light
notes: The chains here are built from the component entries; TRAP sits at the N-terminus of the heavy chain
As for B2, the “IC50, PBMC assay in response to TSLP (TARC secretion)” value with recombinant human TSLP [1] turned out to be 0.43 nM. Further, the “IC50, IL-4 biological assay (CD23 upregulation in PBMCs)” value in assay [2] was above 200 nM. Moreover, the Kd with recombinant human TSLP [3] and in the assay with recombinant human TSLP [4] was 0.019 nM throughout.
